Reference: the supplement of paper PMC7877785
± gives the uncertainty stated by the source.

Test: self-splicing fitness, log relative to wild type (ln ratio); higher = more splicing; Tetrahymena group I intron in knt gene, E. coli kanamycin selection, DiMSum; sequences stand for … in CUCUCU…GGAGGGAAAAGUUAUCAGGCAUGCACCUGGUAGCUAGUCUUUAAACCAAUAGAUUGCAUCGGUUUAAAAGGCAAGACCGUCAAAUUGCGGGAAAGGGGUCAACAGCCGUUCAGUACCAAGUCUCAGGGGAAACUUUGAGAUGGCCUUGCAAAGGGUAUGGUAAUAAGCUGACGGACAUGGUCCUAACCACGCAGCCAAGUCCUAAGUCAACAGAUCUUCUGUUGAUAUGGAUGCAGUUCACAGACUAAAUGUCGGUCGGGGAAGAUGUAUUCUUCUCAUAAGAUAUAGUCGGACCUCUCCUUAAUGGGAGCUAGCGGAUGAAGUGAUGCAACACUGGAGCCGCUGGGAACUAAUUUGUAUGCGAAAGUAUAUUGAUUAGUUUUGGAGUACUCGUGGUCG
Summary of the method: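 Pooled colonies went to amplicon sequencing on an Illumina HiSeq 2500 after six replicate transformations. The plates were LB agar with 100 μg/mL carbenicillin, 50 μM IPTG and 0.2% rhamnose, with or without 25 μg/mL kanamycin, incubated overnight at 37°C or 30°C. The E. coli BL21(DE3) library had all eight P1ex-region intron nucleotides randomised, the intron placed in the knt kanamycin-resistance gene on pET-22b(+). DiMSum fitness is the error-weighted combination of replicate fold changes, kanamycin against none, normalised to wild type.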

Row | Sequence | self-splicing fitness (ln) (30 °C) | self-splicing fitness (ln) (37 °C)
1 | GAACAGCAAUAUUACGGCAA | -0.669 ± 0.094 | -0.372 ± 0.091
2 | UAAUAGCAAUAUUACGUACU | -1.91 ± 0.094 | -0.805 ± 0.088
3 | CAAUAGCAAUAUUACGUUGA | -2.59 ± 0.15 | -3.59 ± 0.22
4 | GUGCAGCAAUAUUACGAAGC | -1.05 ± 0.14 | -1.36 ± 0.19
5 | CAAGAGCAAUAUUACGAGUC | -2.88 ± 0.28 | -0.209 ± 0.28
6 | AACAAGCAAUAUUACGCAGA | -2.2 ± 0.11 | -0.924 ± 0.095
7 | CGUAAGCAAUAUUACGCGAG | -1.63 ± 0.2 | -2.56 ± 0.44
8 | AGAAAGCAAUAUUACGAGCU | -0.0239 ± 0.055 | 0.0125 ± 0.072
9 | UGGUAGCAAUAUUACGUGUA | -2.09 ± 0.13 | -0.721 ± 0.1
10 | UAUUAGCAAUAUUACGGUGU | -3.01 ± 0.25 | -2.7 ± 0.3
11 | CUCAAGCAAUAUUACGGACG | -0.792 ± 0.063 | 0.266 ± 0.095
12 | CUACAGCAAUAUUACGAUAC | -3.74 ± 0.19 | -2.58 ± 0.18
13 | UGUAAGCAAUAUUACGUGGU | -3.15 ± 0.13 | -3.76 ± 0.27
14 | UUAAAGCAAUAUUACGAGUG | -0.826 ± 0.058 | -0.0213 ± 0.08
15 | AAGCAGCAAUAUUACGCAUG | -2.97 ± 0.2 | -2.27 ± 0.2
16 | CGCUAGCAAUAUUACGACUG | -0.448 ± 0.05 | 0.456 ± 0.068
17 | GCAUAGCAAUAUUACGCUUU | -3.17 ± 0.2 | -2.88 ± 0.18

Row | Sequence | self-splicing fitness (ln) (30 °C) | self-splicing fitness (ln) (37 °C)
18 | CGUUAGCAAUAUUACGGCUU | -0.864 ± 0.16 | -2.39 ± 0.31
19 | AAAAAGCAAUAUUACGAGUG | -1.35 ± 0.088 | -1.18 ± 0.09
20 | ACUCAGCAAUAUUACGCAGC | -2.14 ± 0.079 | -0.903 ± 0.093
21 | GGGAAGCAAUAUUACGAUGA | -0.977 ± 0.13 | -0.771 ± 0.13
22 | AUCUAGCAAUAUUACGAGAG | -1.88 ± 0.11 | -0.329 ± 0.1
23 | CGCGAGCAAUAUUACGUAUC | -3.93 ± 0.34 | -3.93 ± 0.36
24 | CCCUAGCAAUAUUACGCAUU | -3.74 ± 0.28 | -2.82 ± 0.43
25 | UUACAGCAAUAUUACGUACU | -0.865 ± 0.1 | -0.831 ± 0.096
26 | CUACAGCAAUAUUACGGUGA | -1.61 ± 0.081 | -0.453 ± 0.092
27 | CAACAGCAAUAUUACGCUAU | -3.29 ± 0.17 | -2.25 ± 0.13
28 | UCGAAGCAAUAUUACGACGC | 0.247 ± 0.19 | -0.514 ± 0.2
29 | AAGCAGCAAUAUUACGGUUU | -2.78 ± 0.12 | -0.354 ± 0.096
30 | CCUCAGCAAUAUUACGGAAU | -3.72 ± 0.3 | -2.69 ± 0.25
31 | UAAAAGCAAUAUUACGCGCU | -1.22 ± 0.14 | 0.0478 ± 0.17
32 | CCCAAGCAAUAUUACGGCCU | -3.6 ± 0.35 | -3.09 ± 0.37
33 | CCACAGCAAUAUUACGAUAC | -3.48 ± 0.24 | -2.16 ± 0.22
